Data from US11802878B2, “Protein sequencing method and reagents” (The Governing Council of the University of Toronto, priority 2009, dated 2023).

Tests used:
[1] = test system: immobilized biotinylated peptide, N-terminal amino acid L (X-SDGMFTAGSLIGK(biotin)); assay: Phage ELISA, binding to immobilized peptide, N-terminal L
Experimental: (§1) Given the discovery that the specificity pocket library was functionally robust, selections against synthetic peptide ligands were carried out using this library. The specificity pocket library was selected against 20 biotinylated peptides, each with a different N-terminal residue atop a common leader sequence (X-SDGMFTAGSLIGK(biotin)) (SEQ ID NO: 4). The peptides were immobilized individually to the bottom wells of a microtiter plate. […] Consequently, ClpS mutant variants that prefer other residues in addition to the ligand ‘bait’ would bind those competing peptides in solution and simply be washed away. Only selective variants that bound to the immobilized target(s) were amplified during each subsequent round of selection.
(§2) To evaluate the specificity and selectivity of individual clones, both wild-type ClpS and the selected variants' binding to each of the biotinylated peptides independently were tested. The same approach was also used to monitor the progress of the selections and to prioritize particular pools of phage for further investigation.
(§3) Promising single clones were picked from the selection pools and their specificity was evaluated using the same panel of biotinylated peptides and various amounts of phage supernatant. […] Accordingly, Variant 1 represents a selective N-terminal amino acid capture probe for tryptophan useful for the sequencing methods described herein. Variant 1 also represents a useful scaffold for performing further generation and selection of variants with desirable properties for use as additional N-terminal amino acid capture probes.
(§4) The selection and ELISA protocols are very similar. Briefly, each well of a 96-well Maxisorp plate was coated overnight at 4° C. with 100 μl of 10 μg/ml neutravidin in PBS, or 1:500 dilution of anti-FLAG antibody. […]
(§5) For the ELISA readouts, 100 μl of pH adjusted phage supernatant or polyethylene glycol (PEG) precipitated concentrated phage was added to appropriate wells and allowed to bind for 1 hour at 4° C. […] The reaction was stopped by addition of 90 μl of 1M H3PO4 and the absorbance at A450 nm was read.

[2] = test system: immobilized biotinylated peptide, N-terminal amino acid F (X-SDGMFTAGSLIGK(biotin)); assay: Phage ELISA, binding to immobilized peptide, N-terminal F
Experimental: as §1, §2, §3, §4, §5

[3] = test system: immobilized biotinylated peptide, N-terminal amino acid C (X-SDGMFTAGSLIGK(biotin)); assay: Phage ELISA, binding to immobilized peptide, N-terminal C
Experimental: as §1, §2, §3, §4, §5

[4] = test system: Leu-peptides; assay: Phage binding to immobilized peptides or control peptides, ELISA (FIG. 6B); settings: negative controls BSA, SA, NA
Text: Selected peptide ligands during were synthesized with C-terminal biotin-lysine residues. The biotinylated peptides were immobilized on neutravidin-coated wells of a microtiter plate by passive adsorption, alongside additional control proteins.
The ClpS domains were N-terminally FLAG-tagged as shown in FIG. 6A so that display of the recombinant phage coat protein would be detectable (using commercial anti-FLAG antibody), even if the domains were not able to bind ligand. […] The expressed proteins also contained an ST2 secretion signal that is cleaved off and a C-terminal phage coat protein p3 (that is, fused to the C-terminus/residue 106 of E. coli ClpS) as shown in FIG. 6C.
The selection and ELISA protocols are very similar. Briefly, each well of a 96-well Maxisorp plate was coated overnight at 4° C. with 100 μl of 10 μg/ml neutravidin in PBS, or 1:500 dilution of anti-FLAG antibody. Plates were washed three times with PBS+0.50% TWEEN-20 (PT) and blocked for 1 hour at room temperature with 200 ul of PBS+0.5% BSA (PB). Plates were washed again three times with PT. […]
as §5

[5] = test system: immobilized biotinylated peptide, N-terminal amino acid M (X-SDGMFTAGSLIGK(biotin)); assay: Phage ELISA, binding to immobilized peptide, N-terminal M
Experimental: as §1, §2, §3, §4, §5

[6] = test system: immobilized biotinylated peptide, N-terminal amino acid D (X-SDGMFTAGSLIGK(biotin)); assay: Phage ELISA, binding to immobilized peptide, N-terminal D
Experimental: as §1, §2, §3, §4, §5

[7] = biological target: Leu-peptide; settings: reported value, wildtype ClpS:Leu-peptide interaction; read-out: dissociation constant (Kd); cited from earlier work
[8] = test system: leucine, phenylalanine, tyrosine and tryptophan N-termini; settings: Schuenemann et al. 2009; Tasaki et al. 2009; cited from earlier work

B1: ClpS WT: truncated wildtype E. coli ClpS polypeptide, 84 amino acids, SEQ ID NO: 1, displayed on phage (protein, listed as Escherichia coli)
chain: KPPSMYKVILVNDDYTPMEFVIDVLQKFFSYDVERATQLMLAVHYQGKAICGVFTAEVAETKVAMVNKYARENEHPLLCTLEKA
modifications: phage display
**Q.** With B1 as the molecule, how does the “phage ELISA binding signal” value ([1]; N-terminal L, phage 10X, sub Fab) read?
**A.** 1.57

**Q.** And the “phage ELISA binding signal” value ([1]; N-terminal amino acid L, Table 1)?
**A.** 1.57

**Q.** What about the “phage ELISA binding signal” value ([2]; N-terminal F, phage 10X, sub Fab) of the same molecule?
**A.** 1.81

**Q.** What about the “phage ELISA binding signal” value ([2]; N-terminal amino acid F, Table 1) of the same molecule?
**A.** 1.81

**Q.** And the “phage ELISA binding signal” value ([3]; N-terminal C, phage 10X, sub Fab)?
**A.** −0.23

**Q.** And the “phage ELISA binding signal” value ([3]; N-terminal amino acid C, Table 1)?
**A.** −0.23

**Q.** And the “binding of phage-displayed ClpS to immobilized peptides” value ([4]; listed as ClpS from E. coli)?
**A.** binds two of the Leu-peptides specifically, without cross reactivity to any of the negative controls

**Q.** What about the “binding of phage-displayed ClpS to immobilized peptides” value ([4]; listed as ClpS from Escherichia coli) of the same molecule?
**A.** able to bind its cognate ligand (immobilized Leucine)

**Q.** And the “phage ELISA binding signal” value ([5]; N-terminal M, phage 10X, sub Fab)?
**A.** −0.11

**Q.** What about the “phage ELISA binding signal” value ([5]; N-terminal amino acid M, Table 1) of the same molecule?
**A.** −0.11

**Q.** And the “phage ELISA binding signal” value ([6]; N-terminal D, phage 10X, sub Fab)?
**A.** −0.29

**Q.** What about the “phage ELISA binding signal” value ([6]; N-terminal amino acid D, Table 1) of the same molecule?
**A.** −0.29

**Q.** And the Kd [7]?
**A.** 4.8 µM

**Q.** What about the affinities [8] of the same molecule?
**A.** single-digit micromolar to nanomolar
